Laboratory results taken from paper PMC6423188, “HYNIC and DOMA conjugated radiolabeled bombesin analogs as receptor-targeted probes for scintigraphic detection of breast tumor” (EJNMMI Research, 2019).

Tests used:
[1] = test system: MDA-MB-231 tumor-bearing mice; experiment: In vivo biodistribution; parameters: species or system mouse; settings: for Tumor uptake: MDA-MB-231 tumor; for Tumor uptake / Blood uptake / Heart uptake / Intestine uptake / Kidney uptake / Liver uptake / Lung uptake / Muscle uptake / Pancreas uptake / Spleen uptake / Stomach uptake / Urine + urinary bladder uptake: mean ± SD, n = 3
Description: All animal experiments were done according to the CSIR-IICB Animal Ethics Committee’s rules and regulation. Forty-eight hours before tumor cell implantation, an immunosuppressive drug (cyclosporine-A) was given intraperitoneal (i.p) at a concentration of 30 mg/kg/day. After that, MDA-MB-231 cells (5 × 10^6) 0.2 mL were implanted subcutaneously into the left flanks of the hind leg of BALB/c mice. Thereafter, the same dose of cyclosporine was given i.p. daily up to 2 weeks. Two weeks after inoculation of the tumor cells, when tumors reached ~ 0.5 cm in mean diameter, the tumor-bearing mice were used for biodistribution and imaging studies. Animals were monitored daily and their weights were recorded. Control group of mice received only 0.9 wt% saline. After cell implantation, the growth rate of the breast tumor followed a satisfactory pattern of spheroid shape and tumors are palpable within 2 to 4 weeks. MDA-MB-231 cell implanted mice tumor models were used for biodistribution and planar imaging studies of these radiolabeled new bombesin analogs.
In tissue biodistribution studies, tumor-bearing animals were divided into four groups and well hydrated for 1 h by intraperitoneal administration of saline (0.9%, 2 mL). Three animals per groups were used for biodistribution studies. After that, the radiolabeled new bombesin analogs (^99mTc-BN) were injected intravenously in each animal of each group consequently through the tail vein [24–27]. After 5, 30, 60, and 120 min intravenous administrations of radiolabeled analogs, the animals were sacrificed; blood, heart, lung, liver, kidney, stomach, intestine, spleen, pancreas, brain, muscle, and tumor were excised, weighed, and counted for radioactivity. The organ uptake was calculated as a percentage of the injected activity per gram of wet tissue (%IA/g). In order to evaluate whether binding of bombesin analogs to MDA-MB-231 cells in vivo is specific; blocking studies with ^99mTc-labeled bombesin analogs in tumor-bearing mice were carried out. Groups of three animals were injected 0.03 nmol of ^99mTc-labeled BN analogs (2 MBq) with 25 nmol of non-radiolabeled BN peptide. After 60 min and 120 min, mice were sacrificed and the organs were collected. Each organ was weighed and counted in a gamma counter along with activity standard and percentage of injected activity per gram (%IA/g) of tissue was calculated for each type of tissues. Counts were corrected for background radiation and physical decay of the radioactivity. The uptake was expressed in the percentage of injected activity per gram of each organ (%IA/g). Data were analyzed statistically by the t test, with the level of significance set at P < 0.05.

in vitro = in vitro ADME; settings: rat
Description: An aliquot (100 μL) of ^99mTc-BN1/^99mTc-BN2/^99mTc-BN3/^99mTc-BN4/^99mTc-BNS was added to 1 mL of freshly collected rat serum in centrifuge tube. The mixture was then incubated at 37 °C for 1 h; the serum protein was precipitated by adding 1 mL trichloroacetic acid (10%, V/V). The supernatant and precipitate were separated by centrifugation at 3000 rpm for 5 min. Radioactivities of both the phases were measured separately. The above experimental procedure was repeated three times. The percentage of protein binding was determined as: Plasma protein binding % = (precipitate counts (CPM) / [precipitate counts (CPM) + plasma counts (CPM)]) × 100%.

physchem = format: physicochemical; settings: pH 7.4
Description: Lipophilicity of the HPLC-purified radiopeptide analogs was determined through octanol/water partition coefficients, determined at pH 7.4 by measuring the distribution of the HPLC purified radiolabeled peptides in 1-octanol and PBS. Then, 50 μL HPLC purified ^99mTc-BN1/^99mTc-BN2/^99mTc-BN3/^99mTc-BN4/^99mTc-BNS with 100 μCi of radiolabeled compound in PBS was added to a to a centrifuge tube containing 1 mL n-octanol and 1 mL PBS (0.025 M, pH 7.4). The tube was vortexed at room temperature for 2 min and they are centrifuged at 5000 rpm for 5 min to ensure complete separation of layers. Further, 100 μL of each phase was transferred into a separate pre-weighed vial and measured in the well γ-counter. The ratio of octanol layer counts to aqueous layer counts was expressed as the distribution coefficient (D, the appropriate descriptor for ionizable compounds) and logD was used for determination of lipophilicity. Counts per unit weight of the sample were calculated, and logD value as calculated as follows:
log10D = log10 [(cpm in octanol – cpm in background) / (cpm in buffer – cpm in background)]

[2] = 60 min p.i., blocked with excess non-radiolabeled BN peptide

## ^99mTc-HYNIC-Asp-Asn-[Lys^11CHAla^13Nle^14]-BN(7-14)NH2 [99mTc-BN3]
[1]; 5 min p.i.
  tumor/blood ratio: 2.37
  tumor/kidney ratio: 0.64
  tumor/muscle ratio: 2.56
[1]; 5 min p.i., i.v.
  Tumor uptake: 1.28 ± 0.01 %IA/g
  Blood uptake: 0.54 ± 0.01 %IA/g
  Heart uptake: 0.91 ± 0.03 %IA/g
  Intestine uptake: 1.21 ± 0.06 %IA/g
  Kidney uptake: 1.97 ± 0.11 %IA/g
  Liver uptake: 0.44 ± 0.03 %IA/g
  Lung uptake: 0.87 ± 0.14 %IA/g
  Muscle uptake: 0.50 ± 0.01 %IA/g
  Pancreas uptake: 2.78 ± 0.11 %IA/g
  Spleen uptake: 0.54 ± 0.04 %IA/g
  Stomach uptake: 0.52 ± 0.02 %IA/g
  Urine + urinary bladder uptake: 0.61 ± 0.04 %IA/g
[1]; 30 min p.i.
  tumor/blood ratio: 3.47
  tumor/kidney ratio: 0.76
  tumor/muscle ratio: 9.83
[1]; 30 min p.i., i.v.
  Tumor uptake: 2.95 ± 0.01 %IA/g
  Blood uptake: 0.85 ± 0.01 %IA/g
  Heart uptake: 0.77 ± 0.02 %IA/g
  Intestine uptake: 1.46 ± 0.05 %IA/g
  Kidney uptake: 3.88 ± 0.21 %IA/g
  Liver uptake: 0.23 ± 0.13 %IA/g
  Lung uptake: 0.62 ± 0.03 %IA/g
  Muscle uptake: 0.30 ± 0.02 %IA/g
  Pancreas uptake: 3.59 ± 0.03 %IA/g
  Spleen uptake: 0.46 ± 0.01 %IA/g
  Stomach uptake: 0.74 ± 0.04 %IA/g
  Urine + urinary bladder uptake: 2.80 ± 0.01 %IA/g
[1]; 60 min p.i.
  tumor/blood ratio: 5.71
  tumor/kidney ratio: 0.85
  tumor/muscle ratio: 10.38
[1]; [2]
  Tumor uptake: 0.54 ± 0.20 %IA/g
  Blood uptake: 0.30 ± 0.01 %IA/g
  Heart uptake: 0.29 ± 0.11 %IA/g
  Intestine uptake: 1.36 ± 0.23 %IA/g
  Kidney uptake: 3.18 ± 0.20 %IA/g
  Liver uptake: 0.20 ± 0.03 %IA/g
  Lung uptake: 0.52 ± 0.02 %IA/g
  Muscle uptake: 0.16 ± 0.21 %IA/g
  Pancreas uptake: 0.92 ± 0.02 %IA/g
  Spleen uptake: 0.33 ± 0.03 %IA/g
  Stomach uptake: 0.37 ± 0.10 %IA/g
  Urine + urinary bladder uptake: 3.52 ± 0.07 %IA/g
[1]; 60 min p.i., i.v.
  Tumor uptake: 2.70 ± 0.02 %IA/g
  Blood uptake: 0.47 ± 0.04 %IA/g
  Heart uptake: 0.35 ± 0.02 %IA/g
  Intestine uptake: 1.85 ± 0.21 %IA/g
  Kidney uptake: 3.17 ± 0.17 %IA/g
  Liver uptake: 0.18 ± 0.12 %IA/g
  Lung uptake: 0.50 ± 0.02 %IA/g
  Muscle uptake: 0.26 ± 0.03 %IA/g
  Pancreas uptake: 2.11 ± 0.06 %IA/g
  Spleen uptake: 0.30 ± 0.01 %IA/g
  Stomach uptake: 0.66 ± 0.02 %IA/g
  Urine + urinary bladder uptake: 3.75 ± 0.11 %IA/g
[1]; 120 min p.i.
  tumor/blood ratio: 7.04
  tumor/kidney ratio: 1.20
  tumor/muscle ratio: 8.89
[1]; 120 min p.i., i.v.
  Tumor uptake: 1.69 ± 0.03 %IA/g
  Blood uptake: 0.24 ± 0.01 %IA/g
  Heart uptake: 0.15 ± 0.04 %IA/g
  Intestine uptake: 0.70 ± 0.05 %IA/g
  Kidney uptake: 1.40 ± 0.13 %IA/g
  Liver uptake: 0.11 ± 0.03 %IA/g
  Lung uptake: 0.35 ± 0.11 %IA/g
  Muscle uptake: 0.19 ± 0.02 %IA/g
  Pancreas uptake: 1.22 ± 0.04 %IA/g
  Spleen uptake: 0.12 ± 0.02 %IA/g
  Stomach uptake: 0.25 ± 0.01 %IA/g
  Urine + urinary bladder uptake: 3.91 ± 0.22 %IA/g
In vitro
  Percentage of plasma protein binding: 26.00%
physchem
  logD: − 2.21 ± 0.13
